The nature of this series: soluble on expression in E. coli; label from the status in PepcDB or PDB records.
Consider “VDNVLVIIGPTASGKTKLAIEIAKRANGEIISADSMQIYKYMDIGTAKPDEEEKEGIKHYLIDEVTPDEEFSVARFKELALKYIDEILSKGKLPIVAGGTGLYINSLIYNLEFSDTICDWELRKKLEQEAKEKGNEYLHNKLKEIDPKAAEKIHMNNVKRVIRAIEVYTYTKKPISVHQEESRKNPPRHNFILIGITMDREKLYDRINKRVDLMLEKGLVKEVEKLVEMGYDKSTIAMQGLGYKEILSYLRGERSLDEAVEILKRDTRRYAKRQMTWFRKIENVYWINKDEFDSDEKIIKNLKYYLATFGIFL”, for which the “soluble on expression in E. coli” value was “soluble”. “MTTDAAVAELLALGELTVRGRIRDASNAALYCTVTHEGREAACVYKPVAGERPLWDFPDGTLAQREVAAYEVSEATGWGLVPPTVLRDGPYGEGMVQLWIETVPETELLALVDEEEPGPGWKGIALAEVGEGRTALLVHADDERLRRLAVLDAVINNADRKGGHLLPAAGERLYGIDHGVTFNAENKLRTLLWGWAGDALTGEALAVLDALRRALKDGGTLALRLAALITPAELDATRARVDALLASGKHPEPGGEWPAIPWPPVLEHHHHHH”: the “soluble on expression in E. coli” value is listed as “not soluble”. In the case of “QTGGSFFEPFNSYNSGTWEKADGYSNGGVFNCTWRANNVNFTNDGKLKLGLTSSAYNKFDCAEYRSTNIYGYGLYEVSMKPAKNTGIVSSFFTYTGPAHGTQWDEIDIEFLGKDTTKVQFNYYTNGVGGHEKVISLGFDASKGFHTYAFDWQPGYIKWYVDGVLKHTATANIPSTPGKIMMNLWNGTGVDDWLGSYNGANPLYAEYDWVKYTSN”, the “soluble on expression in E. coli” value is listed as “soluble”. Next, “GPGSMPKEPILHAELREWLEEYRRHRAFNPIAWIEEKCTKLNEYMRNNKLRGCVTNVSGGVDSAVVLSLCSRAQRMEGSPIVRNVGICQPICSSAWALERGRENIRAAGAEEVVVDQTDIHRQLSLSVEAAVGIDGKDFARGQLRSYMRAPVGYYVAQLCSQSGTPTIVMGTGNMDEDGYLGYFCKAGDGVVDVQLISDLHKSEVFKVARELGVPENTLQAAPSADLWDGQTDEEELGFPYDFVELYTGYFLKLNNGEREMKKKSLSAEARHQFEAYMKSCEETHCRNAHKLNGIVNL”: “soluble”.

As for “MAHHHHHHMQANLWLKGQTSTPLQRICDPVPNLLISQSSQGGQRALWLLHRPESVLGLVVSPQWQGESGDHELCDASVVSKRKIVRVMKHLHSLPFRVAGSSPLRPPMVVHKNHLVGWRIDGKAAPLYAHTLDQLAKLKPTQFKTIEPKNAFICRTYYEWDNWKEVSMEPGWTWHHVDEEIANNILDGTLTFDGLRATATDTP”, the “soluble on expression in E. coli” value is given as “soluble”.

Take “MQTDSLSPSPNPVSPVPLNNPTSAPRYGTVIPNRIFVGGIDFKTNESDLRKFFSQYGSVKEVKIVNDRAGVSKGYGFVTFETQEDAQKILQEAEKLNYKDKKLNIGPAIRKQQVGIPRSSIMPAAGTMYLTTSTGYPYTYHNGVAYFHTPEVTSVPPPWPSRSVCSSPVMVAQPIYQQPAYHYQATTQYLPGQWQWSVPQPSASSAPFLYLQPSEVIYQPVEIAQDGGCVPPPLSLMETSVPEPYSDHGVQATYHQVYAPSAITMPAPVMQPEPIKTVWSIHY”: the “soluble on expression in E. coli” value was “soluble”. As for “MTKFESSVKVIPYSQERVYEKLADLSNLEAIKDRLPEDKVKNMSFDTDTLSFNVDPVGQLTLRIIEREPSKCIKFETTNSPLPFNMWIQLVAVSEEECKLKVTIGLEINPFMKAMVQKPLNEGLEKMADMLSMIQYLEHHHHHH”, the entry is “soluble”. With “PITLVKDILSKPPITAHSNISIMEAAKILIKHNINHLPIVDEHGKLVGIITSWDIAKALAQNKKTIEEIMTRNVITAHEDEPVDHVAIKMSKYNISGVPVVDDYRRVVGIVTSEDISRLFGGKK”, the “soluble on expression in E. coli” value is listed as “soluble”. Consider “MGLWYRMLENQDLEEVITVRVQDPRVQNEGSWNSYVDYKIFLHTNSKAFTAKTSCVRRRYREFVWLRKQLQRNAGLVPVPELPGKSTFFGGSDEFIEKRRQGLQHFLEKVLQSVVLLSDSQLHLFLQSQLSVPEIEACVQGRGAMTVSDAILSYAMSNCGWAQEERQSTSHLAKGDQLNSCCFLPRSGRRSSPSPPLSEEKEQLETWAPVMDSEGPSSESPTLLPSSSLPACWDPARPEEGLSVSQPARRAVAADQAGPMEPTQLDTAWDK”, for which the “soluble on expression in E. coli” value is “soluble”. Take “MGRKKRLKVERKAVAENQSQILTMVTISETEMEKEKTYTALQKLKSVSNDLFEECQRVFANTSFCTAELENIVGCFDRYEKEISTIPDEYRTHPCVIKFQNCIRALCNVVAKKLNNTTRDVETQTNFQSPRITWRQRYWMPYLNK”: the “soluble on expression in E. coli” value is “not soluble”. Next, “MKFIFFVLYVLQFLPFALLHKIADLTGLLAYLLVKPRRRIGEINLAKCFSEWSEEKRKTVLKQHFKHMAKLMLEYGLYWYAPAGRLKSLVRYRNKHYLDDALAAGEKVIILYPHFTAFEMAVYALNQDIPLISMYSHQKNKILDEQILKGRNRYHNVFLIGRTEGLRALVKQFRKSSAPFLYLPDQDFGRNDSVFVDFFGIQTATITGLSRIAALANAKVIPAIPVREADNTVTLHFYPAWKSFPGEDAKADAQRMNRFIEDRVREHPEQYFWLHKRFKTRPEGSPDFY”: “not soluble”; “MGSDKIHHHHHHMLNTKDKQPILLIIFGQKMKEYDDLIRSTVERLSKRDRPVSILISKELNHVIHHYDAQFENLETLVGYINTHEDSLIYPLCLDKNHELFQEFLAWQSHYSRQYISDNLSEKSVQAIDNNQDFVQVDCLVMRDSLNNCLYVSDLEYIESNKTTGKSLAIVPSQTLSDAARQTIRDVAFDVCRKANIIGVCYFSFLIDLNSLDYHIISLSSGLSHQSILFETITTYPVLEIATKLTVGYTFSQLKHSYYPNTSAFLEPQLDYVATVSFSFEKVDYIFFARNIEQLFLNLLEASSHDHFPFLSDISEEDLMFALIQKKENRLAYLLEAFRRGFDLYDLSSVTKINPFYLDKCLHIVELYENLNKSQYNVDIYKEAKRYGFSDDYIASSWQISLIDMLEYRKKHSVAPVLKQVEQSSGVLTGHQIQYFRSYDWHSDYISSGCQKALIMVDKGYSLVKLNELIKQIKQTHLELLIVTNQPLLIEQLNDTSIIFDTIGIETILTIMGIEEVEEVYLLGESQADMFSKMKNFSISCQSI”: “not soluble”; “MNKFKGNKVVLIGNGAVGSSYAFSLVNQSIVDELVIIDLDTEKVRGDVMDLKHATPYSPTTVRVKAGEYSDCHDADLVVICAGARQKPGETRLDLVSKNLKIFKSIVGEVMASKFDGIFLVATNPVDILAYATWKFSGLPKERVIGSGTILDSARFRLLLSEAFDVAPRSVDAQIIGEHGDTELPVWSHANIAGQPLKTLLEQRPEGKAQIEQIFVQTRDAAYDIIQAKGATYYGVAMGLARITEAIFRNEDAVLTVSALLEGEYEEEDVYIGVPAVINRNGIRNVVEIPLNDEEQSKFAHSAKTLKDIMAEAEELK”: “soluble”.

In the case of “QDVIVRTAVAEDVAPIIKMRKHIKEFGSRDENEELIIRQIEKGVKRIYYIEQDQEVVAVAETSAENSFSAMITGVATSDGYRQRGFASTLLKKLCCDVLAEGKKPCLFYDNPVAGEIYHRLGFEHTGDFVMYK”, the “soluble on expression in E. coli” value is “not soluble”. As for “MAKLFFRYAAMNSGKSTQLLQIANNYESMDKKVALYTSAIDDRYGVGMITSRLNIQRESNTFDAGFDFLAHDYGDTACVLVDEAQFMTPEQAQQLHRLAHKRNIPVICFGLRTDFQGHPFPGSAWLLSLADDVEEIKTICHCGRKATMHIRIDGDGRRVKEGPQVEIGGEARYRAVCGRCFHHDLEHHHHHH”, the entry is “soluble”. As for “VNSVTISVEGMTCNSCVWTIEQQIGKVNGVHHIKVSLEEKNATIIYDPKLQTPKTLQEAIDDMGFDAVIHNIEGR”, the entry is “soluble”. As for “LYPEEILDTHWELWKKTHRKQYNNKVDEISRRLIWEKNLKYISIHNLEASLGVHTYELAMNHLGDMTSEEVVQKMTGLKVPLSHSRSNDTLYIPEWEGRAPDSVDYRKKGYVTPVKNQGQCGSCWAFSSVGALEGQLKKKTGKLLNLSPQNLVDCVSENDGCGGGYMTNAFQYVQKNRGIDSEDAYPYVGQEESCMYNPTGKAAKCRGYREIPEGNEKALKRAVARVGPVSVAIDASLTSFQFYSKGVYYDESCNSDNLNHAVLAVGYGIQKGNKHWIIKNSWGENWGNKGYILMARNKNNACGIANLASFPKM”, the entry is “soluble”; as for “MLERHDRLETLRKLKELQERIAELAYLLTGEEPAAWTPRVDLLETEEHYVLLVDLPGVRPEDLELLEEGQRVTLAGVRHPLPGTYLLEERPMGTFRRTLDLPGPIEEGTAQATLRNGVLEVRFRKRPATALPLKEA”, “soluble”.

(Values after the DeepSol protein solubility set.)
